According to the DeepSol protein solubility set:

Assay: soluble on expression in E. coli; label from the status in PepcDB or PDB records

Q: With “MMLSLNNLQNIIYNPVIPYVGTIPDQLDPGTLIVICGHVPSDADRFQVDLQNGSSVKPRADVAFHFNPRFKRAGCIVCNTLINEKWGREEITYDTPFKREKSFEIVIMVLKDKFQVAVNGKHTLLYGHRIGPEKIDTLGIYGKVNIHSIGFSFSSDLQSTQASSLELTEISRENVPKSGTPQLSLPFAARLNTPMGPGRTVVVKGEVNANAKSFNVDLLAGKSKDIALHLNPRLNIKAFVRNSFLQESWGEEERNITSFPFSPGMYFEMIIYCDVREFKVAVNGVHSLEYKHRFKELSSIDTLEINGDIHLLEVRSW” as the sequence, how does the “soluble on expression in E. coli” value read?
A: Its value is “soluble”.

Q: With “MMNEKILIVDDQYGIRILLNEVFNKEGYQTFQAANGLQALDIVTKERPDLVLLDMKIPGMDGIEILKRMKVIDENIRVIIMTAYGELDMIQESKELGALTHFAKPFDIDEIRDAVKKYLPLKSN” as the sequence, how does the “soluble on expression in E. coli” value read?
A: Its value is “soluble”.

Q: Which “soluble on expression in E. coli” value does the source give for “MMNTNTTNNTVLLFTFNNIQGRGLQTAIEQNLEKPVLLTQGADVNLPSTRDEHYVAIVDSSLPELPEVKQTLSELEHVDATVLVNAEPNLRIESLLTWSNLKGLFYFEDDFDKVMMGLKGILNGENWLSRDILN” here?
A: Its value is “not soluble”.

Q: Which “soluble on expression in E. coli” value does the source give for “MMSAPKITFIGAGSTIFVKNILGDVFHREALKTAHIALMDIDPTRLEESHIVVRKLMDSAGASGKITCHTQQKEALEDADFVVVAFQIGGYEPCTVTDFEVCKRHGLEQTIADTLGPGGIMRALRTIPHLWQICENMTEVCPDATMLNYVNPMAMNTWAMYARYPYIKQVGLCHSVQGTAEELARDLNIDPATLRYRCAGINHMAFYLELERKTADGSYVNLYPELLAAYEAGQAPKPNIHGNTRCQNIVRYEMFKKLGYFVTESSEHFAEYTPWFIKLGREDLIERYKVPLDEYPKRCVEQLANWHKELEEYKNASRIDIKPSREYASTIMNAIWTGEPSVIYGNVRNDGLIDNLPQGCCVEVACLVDANGIQPTKVGTLPSHLAALMQTNINVQTLLTEAILTENRDRVYHAAMMDPHTAAVLGIDEIYALVDDLIAAHGDWLPSWLHR” here?
A: Its value is “not soluble”.

Q: Which “soluble on expression in E. coli” value does the source give for “MMSESNKQQAVNKLTEIVANFTAMISTRMPDDVVDKLKQLKDAETSSMGKIIYHTMFDNMQKAIDLNRPACQDTGEIMFFVKVGSRFPLLGELQSILKQAVEEATIKAPLRHNAVEIFDEVNTGKNTGSGVPWVTWDIVPDGDDAEIEVYMAGGGCTLPGRSKVLMPSEGYEGVVKFVFENISTLAVNACPPVLVGVGIATSVETAAVLSRKAILRPIGSRHPNPKAAELELRLEEGLNRLGIGPQGLTGNSSVMGVHIESAARHPSTIGVAVSTGCWAHRRGTLLVHADLTFENLSHTRSAL” here?
A: The value was “not soluble”.

Q: Which “soluble on expression in E. coli” value does the source give for “MMSVPVMADEGTKWDWPLQKGDGVVNVLDDDDHFEVGLEAHNFLPKEIEVKNIGELLEIHMEHNVKKDSFGDVSRNITRCYKLPKNVDMKTIKSNLDSHGILHIEARKMH” here?
A: The value was “not soluble”.

Q: For “MMTTIVMESTTEKVCEASSDACPKLETMFDATPQIVEIDGCQDITCPGNAVPYLVATFPASEIEPFYPMDVVNPFNVIPPSTISGSVIDYYGKICDGGVWKFTKYPDGIHVNDSDTIMGEDGSLTGKKSTLLVVTWYGFC”, which “soluble on expression in E. coli” value is on record?
A: Its value is “not soluble”.

Q: With “MNAERCEFIAGNSLIEVIPSISDDRPIHLISGDIGPFEAGVPCRIPVWTAILMKRKHNCKVVAPQWMDVDELKKILTSETESQGLAKLPDHFFEISHMLVRDAREDIFEVEAVKSLVQDIYDRRDAKLRSSAIEFLRQNQTCHAQLDNVQLIEASSARATLEACRQMGAVVRNKHESTPL” as the sequence, how does the “soluble on expression in E. coli” value read?
A: Its value is “not soluble”.

Q: Which “soluble on expression in E. coli” value does the source give for “MNAFFTRALKPGARPLDETPGAILCPADGAVSQLGPIEHGRIFQAKGHGFSAQELLGGDPAMAAPFMGGEFATIYLSPKDYHRVHMPLAGTLREMVYVPGRLFSVNQTTAENVPELFARNERVVCLFDTERGPMAVVLVGAMIVASIETVWAGLVTPPKRELKTFRYDEASRTPIHLEKGAELGRFKLGSTAIVLFGPEQVKWAESLGAGSAVRMGQQLAAPAQALEHHHHHH” here?
A: The value was “not soluble”.

Q: With “MNAGSDPVVIVSAARTIIGSFNGALAAVPVQDLGSTVIKEVLKRATVAPEDVSEVIFGHVLAAGCGQNPVRQASVGAGIPYSVPAWSCQMICGSGLKAVCLAVQSIGIGDSSIVVAGGMENMSKAPHLAYLRTGVKIGEMPLTDSILCDGLTDAFHNCHMGITAENVAKKWQVSREDQDKVAVLSQNRTENAQKAGHFDKEIVPVLVSTRRGLIEVKTDEFPRHGSNIEAMSKLKPYFLTDGTGTVTPANASGINDGAAAVVLMKKSEADKRGLTPLARIVSWSQVGVEPSIMGIGPIPAIKQAVTKAGWSLEDVDIFEINEAFAAVSAAIVKELGLNPEKVNIEGGAIALGHPLGASGCRILVTLLHTLERMGRSRGVAALCIGGGMGIAMCVQRE” as the sequence, how does the “soluble on expression in E. coli” value read?
A: The value was “soluble”.

Q: For “MNALSGLQVITRRPDKRSASGVTKKCRKSLKTAPDTKTVFKGSFASHYVDKSSQVNPGTHITVRGSIHGEVSIKKMLKGSRCRTAL”, which “soluble on expression in E. coli” value is on record?
A: Its value is “not soluble”.

Q: For “MNAMERENTVKSVRRALQIIEIVSTKKDGLGVTEIAKQMDINKSSVYRILTTLAQYGYIEQHPETERYKLGYKFLELSSKLLDSIDLRQEAKPYLRELEKETNEVIHLVVYDQGEVIYIEKLEGTETLRMHSKVGKRAPMHCTAVGKAILAHLPPAVAAEIIDRKGLPKHTDWTITDREAFFRELETVRQNGYALDLEENEYGIRCVAVPIFDYTGGVVAAISVSGPTIRMTDDRITSLTVRMRQIGKELSARLGYRGAHSVQL”, which “soluble on expression in E. coli” value is on record?
A: Its value is “soluble”.

Q: With “MNASLTPDQVSKKLKQFFSDHLPISQFMGLEIESYDGDTLILTAPLEPNINDKQTAFGGSLYNAAVMACWGMVYLKTQEENIACNQVVTEGNMKYIAPVYGRIRAICHAPDEEELANFFDHFERKGKARISLEAAIYNDACVMKIEPETKPSVKFNGQYAILKNQ” as the sequence, how does the “soluble on expression in E. coli” value read?
A: Its value is “soluble”.

Q: With “MNASQPPPGGRLPDEVFRKITAVDQGQSTLTQSGIQGLSARTLSSEPRGDLVFQLVEIIKKPGQSLGLYLREGNGKDRSDGVFVSRFGDNSELAKYGEVMRPGDEILTINNVEVSMMSIDDVVLILSIPRRLLLRIRYSKSMRHEIISSRSRESERPVVVFHKYDDRRDSETNAPILSQPTSTANTWLGKKSRQQMEEMRNATTSSTLRTHASTSSPRNHFAPRLVNGHSHSIGVPSASTTSHDHQYQRFASEPSDSVSRTARVPPPRLASATVRRTESFNSAPGVSTSAPMYTLPRSSTAVPPPDILGSIPYSARDPLMRSSADLPYDPMTGRLSSSVPTDPLLSRSLCSPILPRTLRQANDSNKSNSLPRRRIMTGGRNVKWRNDVVSTSDLCGEESDGAISAPEYSSPPFSRLTQQQQFRLSNGSPGRTVNDIFSAAEYRNWAGPYDPRGMYGPFPPGQRATRWSHTYGEQRAPRTSSLPGRTVLAQSLVGSPVLPRHPPPIVQDRPSAVFDRYHVSPLMNRRAPLRAAGPGINVDRLSVSSLTGILYVHIVEGRGLKIPEKQKGLTEEMYCVLEVDEQHRARTGVSTIEQKFKWRETFHIDVVNATVSNFFVYSWHPQFRHKLCHKGSLKLLEAFVVDQLNDDRVFALNLEPRGQLIVRIGFHDLQAVFRRTVNPRLNGVFGISLSRLVQRERRDTPIVLTRLIQEIEKRGVDYSGLYVLCGSVEKKKMLRAELESNPLGTELAAESIPDTNVIACLIKDFLRELPEPLISPQIHGMLLEAASVALPNDVQTNRHLVLKIIDCLQLSAKNCLLLVLDHLSTVLCSSPHNGLTPTRLSLIFAPLLFFCLDTFSPYTISPTSKMAAVRTLDINQASSSLQMILSIWPSRVSELVEFFPFLLNYPTVSYSSPNPHSESGSDSPATTCQKGGVIAYVSESQC” as the sequence, how does the “soluble on expression in E. coli” value read?
A: Its value is “not soluble”.

Q: Which “soluble on expression in E. coli” value does the source give for “MNDAVITLNGLEKRFPGMDKPAVAPLDCTIHAGYVTGLVGPDGAGKTTLMRMLAGLLKPDSGSATVIGFDPIKNDGALHAVLGYMPQKFGLYEDLTVMENLNLYADLRSVTGEARKQTFARLLEFTSLGPFTGRLAGKLSGGMKQKLGLACTLVGEPKVLLLDEPGVGVDPISRRELWQMVHELAGEGMLILWSTSYLDEAEQCRDVLLMNEGELLYQGEPKALTQTMAGRSFLMTSPHEGNRKLLQRALKLPQVSDGMIQGKSVRLILKKEATPDDIRHADGMPEININETTPRFEDAFIDLLGGAGTSESPLGAILHTVEGTPGETVIEAKELTKKFGDFAATDHVNFAVKRGEIFGLLGPNGAGKSTTFKMMCGLLVPTSGQALVLGMDLKESSGKARQHLGYMAQKFSLYGNLTVEQNLRFFSGVYGLRGRAQNEKISRMSEAFGLKSIASHATDELPLGFKQRLALACSLMHEPDILFLDEPTSGVDPLTRREFWLHINSMVEKGVTVMVTTHFMDEAEYCDRIGLVYRGKLIASGTPDDLKAQSANDEQPDPTMEQAFIQLIHDWDKEHSNE” here?
A: The value was “soluble”.

Q: For “MNDAVPAGNFVPPLILHSDHGGSAMSSSAHRGRILHFLGDPAKLGDKAWEYFEDGLLWIEHGHVRALDHATYLLPQLPADLPLEEHPQRLLLPGFVDCHVHYPQLGVIASYGTQLLDWLETHTFPAEQRFADAGYAAAQAELFLDELLRHGTTTALVFGTVHAVSAEAFFQAAQKRRLRMIAGKVLMDRNAPPALCDTAASGYAESRALIERWHGNGRLQYAVTPRFAPTSSPEQLAAAARLLDEYPGVYLHTHLSENLKEVAWVGELFPQAQDYLDVYHRAGLVGERSVFAHGIHLSERECRCLAHKNAALAHCPSSNLFIGSGLFDLGRAQQYGIRVGIGSDVGGGTSLSLLANLADAYKIQQLRGTSLDPFQALYLATLGGARALDLDGLVGNFLPGREADFVALDLAATPMIAQRMEHARGLADTLFVLNTLGDDRAVAETWVMGERRHVKG”, which “soluble on expression in E. coli” value is on record?
A: The value was “not soluble”.

Q: For “MNDGNSRTPYNSLYKPLNLIKSKPDGCCKHNGQCPYGKNQAESVDDGNSRTPYNSIYEPLSLNKSKPDSQCSNGKKPADDEYVNLLLPQSKEEQVAEKLADKLRKLEVKESKGKRRGSKERKKKKPEPVESTYESLASIEGSTNFSGPVTTESLESNVKCHHASQTAYIGVYSSADAEAQVKNRGEFALYHQFEVGNRLDHLTATLPLMLVYYTTTKKHRHYPVRKSGDNGTVQYSVDCGYPIVRKHFSINQLVLYYKTFGSIQMKQEDICSEEFSWWLE”, which “soluble on expression in E. coli” value is on record?
A: The value was “not soluble”.

Q: For “MNDLCVDLGYKSLNKFGEQLCGDMIQVVKDDDTTILVLADGLGSGVKANILSTLTSKIISTMIAAHMGIEECVNTIMSTLPVCKVRGIAYSTFTIIKITNNTYAEIIQYDNPLVILLRNGKKYDYPTQTKIISGKKIVESKIRLNCDDVFVVMSDGAIYAGVGQTLNYGWQRENIIEFIESHYDKSLSANALTSLLIDTCNNLYANMPGDDTTIAAIKIRKRQVVNLMFGPPQNPEDVHNMMSLFFAKQGRHIVCGGTTSTLAAKFLGKELETTIDYIDPRIPPIARIEGVDLVTEGVLTISRVLEYAKDYIGKNILYNEWHSKNDGASIIARMLFEEATDINFYVGKAINPAHQNPNLPIGFNIKMQLVEELSKILKQMGKTINLSYF”, which “soluble on expression in E. coli” value is on record?
A: The value was “not soluble”.

Q: With “MNDQELRAYLSQAKTIAVLGAHKDPSRPAHYVPRYLREQGYRVLPVNPRFQGEELFGEEAVASLLDLKEPVDILDVFRPPSALMDHLPEVLALRPGLVWLQSGIRHPEFEKALKEAGIPVVADRCLMVEHKRLFRGPLPL” as the sequence, how does the “soluble on expression in E. coli” value read?
A: The value was “soluble”.

Q: With “MNEEILPILTVKDLNAGYLTNEKYIGIIHNINIELNRGKIVGITGLSGSGKTTLLKSILLETHIKSGEIIFNGKPIMPGDTKNYRRSVIYVPQNSLDSLDIIWPIEDQVKKILKQHNVVYDINKVSEIAKLIDLDISMLKLKSFEVSYGTRHKIVLLMSILMAKRDLVVLMDEPTLSQDAITAEGILNIIVKLAKDYGSSFIIVSSSPEPVFYASDFIYIMYGGWIVENGTPNDLSKWPKHPFTYEFINMLPAHKTRDRFPKFPMTEFSENGCPYSIYCKNKIKGCDSHINMFGEGHKYRCLNPVV” as the sequence, how does the “soluble on expression in E. coli” value read?
A: The value was “not soluble”.

Q: Which “soluble on expression in E. coli” value does the source give for “MNEKQKRFADEYIMNGCNGKKAAISAGYSKKTAESLASRLLRNVNVSEYIKERLEQIQEERLMSITEALALSASIARGEPQEAYSKKYDHLNDEVEKEVTYTITPTFEERQRSIDHILKVYGAYIDKKEITQKNIEINIGEYDDES” here?
A: Its value is “not soluble”.
